# Article PMC2064680 (The Journal of Cell Biology, 2006)
# Values joined by “and” are separate entries in the source; they are usually repeats but may differ in a detail not shown here. Equal entries are not always repeated.
# T1: ESCRT-I purified from E. coli (Vps23, Vps28, Vps37) (yeast, UniProt P25604 1-385; Q02767 1-242; Q99176 1-213)
# T1 sequence (looked up) 1: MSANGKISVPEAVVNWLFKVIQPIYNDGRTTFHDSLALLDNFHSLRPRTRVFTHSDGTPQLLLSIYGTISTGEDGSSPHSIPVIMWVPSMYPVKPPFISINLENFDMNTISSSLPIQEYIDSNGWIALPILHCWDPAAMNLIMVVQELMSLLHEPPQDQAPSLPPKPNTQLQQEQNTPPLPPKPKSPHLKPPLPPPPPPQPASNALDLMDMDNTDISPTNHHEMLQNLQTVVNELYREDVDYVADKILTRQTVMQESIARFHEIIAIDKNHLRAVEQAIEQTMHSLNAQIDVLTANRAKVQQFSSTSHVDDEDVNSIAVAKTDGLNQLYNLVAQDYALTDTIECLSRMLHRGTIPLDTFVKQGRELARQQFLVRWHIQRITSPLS
# T1 sequence (looked up) 2: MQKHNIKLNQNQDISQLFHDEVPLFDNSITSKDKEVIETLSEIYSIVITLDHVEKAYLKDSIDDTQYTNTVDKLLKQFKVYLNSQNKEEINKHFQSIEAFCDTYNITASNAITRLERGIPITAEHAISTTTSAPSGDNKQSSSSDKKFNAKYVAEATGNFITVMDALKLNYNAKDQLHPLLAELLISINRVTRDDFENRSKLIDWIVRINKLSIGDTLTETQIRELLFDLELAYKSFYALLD
# T1 sequence (looked up) 3: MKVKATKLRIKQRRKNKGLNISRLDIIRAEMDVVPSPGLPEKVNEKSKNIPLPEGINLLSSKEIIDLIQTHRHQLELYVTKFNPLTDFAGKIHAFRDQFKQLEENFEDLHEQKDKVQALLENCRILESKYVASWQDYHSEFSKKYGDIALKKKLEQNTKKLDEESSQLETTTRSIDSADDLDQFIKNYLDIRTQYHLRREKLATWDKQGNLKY
# Experiments:
# [1] = biological target: ESCRT-I purified from E. coli (Vps23, Vps28, Vps37) (yeast) (UniProt P25604); assay: cross-linking
# [2] = biological target: T1, ESCRT-I purified from E. coli (Vps23, …)
Molecule,stoichiometry N [1],stoichiometry N [2]
"ESCRT-I purified from E. coli (Vps23, Vps28, Vps37) (from UniProt P25604 1-385; Q02767 1-242; Q99176 1-213) (complex)",2 and 3,–
"Mvb12, E. coli-expressed (unpublished in vitro analyses) (natural protein, yeast, UniProt P42939 1-101, looked up) MNNNVEELLRRIPLYNKYGKDFPQETVTRFQMPEFKLPALQPTRDLLCPWYEECDNITKVCQLHDSSNKKFDQWYKEQYLSKKPPGIVGNTLLSPSRKDNS",–,1
